Test results reported in paper PMC2997670 (The Biochemical journal, 2010).

B1: ECM4 (extracellular mutant 4) of Saccharomyces cerevisiae (enzyme, S. cerevisiae, UniProt P36156 1-370, looked up)
chain: MSKQWASGTNGAFKRQVSSFRETISKQHPIYKPAKGRYWLYVSLACPWAHRTLITRALKGLTSVIGCSVVHWHLDEKGWRFLDMEKQLEDSEDFLEHWHDVAGGIRTAKEDSSKSFAEIKNDSQRFMVDATNEPHYGYKRISDLYYKSDPQYSARFTVPVLWDLETQTIVNNESSEIIRILNSSAFDEFVDDDHKKTDLVPAQLKTQIDDFNSWVYDSINNGVYKTGFAEKAEVYESEVNNVFEHLDKVEKILSDKYSKLKAKYGEEDRQKILGEFFTVGDQLTEADIRLYTTVIRFDPVYVQHFKCNFTSIRAGYPFIHLWVRNLYWNYDAFRYTTDFDHIKLHYTRSHTRINPLGITPLGPKPDIRPL
B2: PcpF, S-glutathionyl-(chloro)hydroquinone reductase of Sphingobium chlorophenolicum ATCC 39723 (enzyme, UniProt Q8KN33 1-313, looked up)
chain: MGLLIDGVWRDAWYDTKSSGGRFVRKESQYRGGLDAGFRGEPGRYHLYAGFACPWAHRVLIMRALKGLEEMISVSMVNAYMGENGWTFLPGDDVVPDSINGADYLYQVYTAADPTYTGRVTIPILWDKVEKRILNNESSEIIRILNSAFDDVGALPGDYYPAEFRPEIDRINARVYETLNNGVYRSGFATTQEAYEEAFYPLFDTLDWLEEHLTGREWLVGDRLTEADIRLFPTLVRFDAIYHGHFKCNLRRIADYPNLSRLVGKLASHERVAPTINLRHAKAHYYGSHPSVNPTGIVPVGPAQPLPGLTLQS

Target: the molecule itself
Assay: SEC + SEC-MALS

Row | Protein | stoichiometry N
1 | B1 | 2
2 | B2 | 2
